The source of these data is IntAct's records for PubMed 17157260.

B1: Protein YNG1 (Saccharomyces cerevisiae), Q08465 (parent)
chain: MEHLANENSDSDIRYSFLSTLDHLPCELIRSLRLMQTIDLFKNEEDEPGMERACRDLLLVATYINDLVDDQIHFLKQHKKELEIQKSVTKNFNSSLENIKSKLTLEEPGAYKEPKLLLKINLKKAKSRERKESITSPTIGINQGDVTEGNNNQEEVYCFCRNVSYGPMVACDNPACPFEWFHYGCVGLKQAPKGKWYCSKDCKEIANQRSKSKRQKRRK

The assay covers variants of B1. The conditions noted are these: with h3_yeast HHT1, P61830.
Turning to MEHLANENSDSDIRYSFLSTLDHLPCELIRSLRLMQTIDLFKNEEDEPGMERACRDLLLVATYINDLVDDQIHFLKQHKKELEIQKSVTKNFNSSLENIKSKLTLEEPGAYKEPKLLLKINLKKAKSRERKESITSPTIGINQGDVTEGNNNQEEVYCFCRNVSYGPMVACDNPACPFEEFHYGCVGLKQAPKGKWYCSKDCKEIANQRSKSKRQKRRK [W180E], the “effect of a mutation on the interaction” value was “decreasing interaction”.
